# Experimental data reported in IntAct's records for PubMed 21730963.
# B1: Transcriptional regulatory protein DOT6 (Saccharomyces cerevisiae), P40059 (parent)
# chain: MSISTSLNSASIHLSSMDTHPQLHSLTRQPHSSSTAMSKNEAQESSPSLPASSSSSTSASASASSKNSSKNPSSWDPQDDLLLRHLKEVKKMGWKDISQYFPNRTPNACQFRWRRLKSGNLKSNKTALIDINTYTGPLKITHGDETANAQQKPSKKVEENVLTEDTAEFTTTSSIPIPSRKTSLPSFHASMSFSQSPSNVTPTTIVSNAASSMPFAPPTLPAALPHHPHQHLHHHPHHKTLKPRSNSHSFTNSLNQDPIVRSNDEEKYGFIPKVFVRSRRSSFAYPQQVAITTTPSSPNSSHVLLSSKSRRGSLANWSRRSSFNVSSNNTSRRSSMILAPNSVSNIFNVNNSGSNTASTSNTNSRRESVIKKEFQQRLNNLSNSGGPTSNNGPIFPNSYTFMDLPHSSSVSSSSTLHKSKRGSFSGHSMKSSCNPTNLWSKDEDALLMENKKRNLSVMELSILLPQRTEVEIQWRLNALSSDADMLSPTHSPQKTLSKKTCPRMFKSGSTTDDDKGSDKEDVMGDGSNDDDEDNVDPLHRAKQSSNKTVFSSSSSNISSKDVSPDPIFSPDPADDSSNTSDAGSRCTITSDTSSSAATMNRTPNSKNPQDIALLNNFRSEAITPRPKPSSTTTSITTETTNNMINHSSSTTTTTNNSPLPSINTIFKDML
# partner: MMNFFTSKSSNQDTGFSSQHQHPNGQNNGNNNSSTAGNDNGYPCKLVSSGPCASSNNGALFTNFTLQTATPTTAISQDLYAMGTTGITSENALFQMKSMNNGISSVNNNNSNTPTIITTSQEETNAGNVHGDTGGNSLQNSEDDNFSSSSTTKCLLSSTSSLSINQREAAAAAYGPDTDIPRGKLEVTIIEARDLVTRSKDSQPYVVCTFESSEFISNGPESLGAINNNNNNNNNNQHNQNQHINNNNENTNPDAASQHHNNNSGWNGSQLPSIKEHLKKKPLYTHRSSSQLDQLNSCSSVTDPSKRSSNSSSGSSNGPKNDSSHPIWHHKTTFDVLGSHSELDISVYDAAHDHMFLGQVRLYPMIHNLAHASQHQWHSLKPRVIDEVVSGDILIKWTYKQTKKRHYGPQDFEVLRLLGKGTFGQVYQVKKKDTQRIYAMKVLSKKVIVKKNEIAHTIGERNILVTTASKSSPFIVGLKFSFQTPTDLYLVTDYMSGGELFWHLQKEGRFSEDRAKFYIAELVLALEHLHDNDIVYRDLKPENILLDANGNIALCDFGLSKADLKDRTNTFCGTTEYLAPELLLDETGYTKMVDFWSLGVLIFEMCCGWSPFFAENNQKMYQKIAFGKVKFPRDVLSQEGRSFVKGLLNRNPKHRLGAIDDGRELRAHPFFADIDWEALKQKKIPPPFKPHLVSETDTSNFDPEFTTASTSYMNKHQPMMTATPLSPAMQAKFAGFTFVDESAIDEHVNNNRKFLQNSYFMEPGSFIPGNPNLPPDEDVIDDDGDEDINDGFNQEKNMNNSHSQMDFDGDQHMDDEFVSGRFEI
# B2: Serine/threonine-protein kinase SCH9 (Saccharomyces cerevisiae), P11792 (parent)
# chain: B1 partner
# partner: B1 chain
# B3: Serine/threonine-protein kinase SCH9 (Saccharomyces cerevisiae), P11792 (parent)
# chain: B1 partner
# partner: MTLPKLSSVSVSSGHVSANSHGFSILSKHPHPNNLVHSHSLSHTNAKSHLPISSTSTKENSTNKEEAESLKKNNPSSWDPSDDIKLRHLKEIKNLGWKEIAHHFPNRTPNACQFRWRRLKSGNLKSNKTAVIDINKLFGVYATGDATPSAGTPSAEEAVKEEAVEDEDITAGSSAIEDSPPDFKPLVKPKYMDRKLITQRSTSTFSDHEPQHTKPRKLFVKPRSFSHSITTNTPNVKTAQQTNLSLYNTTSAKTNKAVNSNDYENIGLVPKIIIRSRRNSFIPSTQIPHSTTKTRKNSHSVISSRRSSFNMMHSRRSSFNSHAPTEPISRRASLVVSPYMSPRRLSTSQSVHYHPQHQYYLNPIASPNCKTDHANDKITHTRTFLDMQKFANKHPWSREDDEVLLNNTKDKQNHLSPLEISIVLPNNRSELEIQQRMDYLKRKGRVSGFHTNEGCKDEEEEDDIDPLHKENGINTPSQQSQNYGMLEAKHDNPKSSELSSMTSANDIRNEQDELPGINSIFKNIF
# B4: Transcriptional regulatory protein TOD6 (Saccharomyces cerevisiae), P34219 (parent)
# chain: B3 partner
# partner: B1 partner
# B5: Serine/threonine-protein kinase SCH9 (Saccharomyces cerevisiae), P11792 (parent)
# chain: B1 partner
# partner: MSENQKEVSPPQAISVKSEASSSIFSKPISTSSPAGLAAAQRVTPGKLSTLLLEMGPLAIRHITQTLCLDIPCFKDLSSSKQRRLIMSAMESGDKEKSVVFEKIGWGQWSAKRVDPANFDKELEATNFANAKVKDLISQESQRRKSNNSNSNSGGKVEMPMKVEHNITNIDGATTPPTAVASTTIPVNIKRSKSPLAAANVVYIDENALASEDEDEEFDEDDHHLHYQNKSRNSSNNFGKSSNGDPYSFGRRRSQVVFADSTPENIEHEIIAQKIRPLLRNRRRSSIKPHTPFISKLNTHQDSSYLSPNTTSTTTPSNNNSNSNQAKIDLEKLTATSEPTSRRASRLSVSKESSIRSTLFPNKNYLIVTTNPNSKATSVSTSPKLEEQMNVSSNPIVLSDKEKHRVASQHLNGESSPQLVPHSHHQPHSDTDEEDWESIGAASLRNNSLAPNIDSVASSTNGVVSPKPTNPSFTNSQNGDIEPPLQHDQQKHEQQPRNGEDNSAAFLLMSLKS
# Variants of: B1
# Conditions: with sch9_yeast SCH9, P11792
row,Variant,effect of a mutation on the interaction
1,T5A,decreasing interaction

# Variants of: B2
# Conditions: with dot6_yeast DOT6, P40059
row,Variant,effect of a mutation on the interaction
1,T6E,increasing interaction

# Variants of: B3
# Conditions: with tod6_yeast TOD6, P34219
row,Variant,effect of a mutation on the interaction
1,T6E,increasing interaction

# Variants of: B4
# Conditions: with sch9_yeast SCH9, P11792
row,Variant,effect of a mutation on the interaction
1,L6A,decreasing interaction

# Variants of: B5
# Conditions: with stb3_yeast STB3, Q12427
row,Variant,effect of a mutation on the interaction
1,T6E,increasing interaction
